Measured values as given in patent publication US20130058955A1 (Genentech, published 2013).
Where a chain is given by its changes, count along the chain named. Names may count otherwise. “And” between values parts separate entries of the source, which are not always exact repeats. Equal values may be shown once. Read-outs that look alike come from different tables or passages of the source.

Legend:
[1] = target: T1, linear diubiquitin (Boston Biochem) (human, UniProt P0CG48 1-152); experiment: phage IC50 competition ELISA: soluble linear diUb against plate-coated linear diUb for the 1D8.3C2 Fab-phage
T1 construct: Bought product

[2] = target: T1, linear diubiquitin (Boston Biochem); experiment: phage IC50 competition ELISA: Fab-phage with titrated soluble linear diubiquitin, unbound phage caught on coated linear diubiquitin; clone 1D8
Experimental: (§1) An initial titer ELISA was done to determine the amount of phage at which a signal of OD₄₅₀=0.5 would be achieved. […] The coated plates were blocked with 200 μL/well of 2.5% milk in PBST for one hour at 25° C. with shaking. Twelve two-fold serial dilutions of the phage were made in 2.5% milk in PBST from OD₂₆₈=4.0 to OD₂₆₈=0.002. After one hour, the blocking buffer was dumped off of the plate and 100 μL/well of each phage dilution was added and incubated at 25° C. for 15 minutes with shaking. The plate was then washed six times with PBST using a plate washer. A 1:5000 dilution of an anti-M13 phage-HRP-conjugated secondary antibody (GE Healthcare) in PBST was used for detection of phage binding. 100 μL/well of the secondary dilution was added and the plate was incubated at 25° C. for 30 minutes with shaking. The plate was then washed 12 times with PBST using a plate washer and twice with PBS manually. Bound secondary antibody was detected using a TMB substrate (KPL) followed by quenching with an equal volume of 1 M phosphoric acid.

[3] = target: T1, linear diubiquitin (Boston Biochem); experiment: phage IC50 competition ELISA: Fab-phage with titrated soluble linear diubiquitin, unbound phage caught on coated linear diubiquitin; clone 1E3
Experimental: as §1

[4] = target: T1, linear diubiquitin (Boston Biochem); experiment: phage IC50 competition ELISA with soluble linear diubiquitin
Experimental: as §1

[5] = target: T2, K63-linked polyubiquitin 2-7 (Boston Biochem) (human, UniProt P0CG48 1-76, isopeptide bonds between the C-terminus of one ubiquitin and Lys63 of the next); experiment: phage spot ELISA, 2 ug/mL coated antigen, anti-M13-HRP
T2 construct: also called K63-linked chains
Experimental: (§2) Ninety-six individual clones from the second round of sorting of the VH library, 192 clones from the third round of sorting of the VH library, 96 clones from the fourth round of sorting of the VH library, and 192 clones from the fourth round of sorting of the common light chain library were screened. […] Individual clones were grown up in a 96-well format in 1 mL of 2YT broth containing 50 μg/mL carbenicillin and 1×10¹⁰ phage/mL M13K07 helper phage at 37° C. overnight with shaking. Cells were pelleted by spinning at 3000 rpm for ten minutes. […] All of the Fab libraries contain a carboxy-terminal gD tag on the light chain which allows for assessment of display level by anti-gD antibody binding. The panel of ubiquitin proteins was immobilized on 384-well Maxisorb immunoplates (NUNC). Plates were coated at 4° C. overnight with 2 μg/mL of each protein in 50 mM sodium carbonate buffer, pH 9.6. The coated plates were blocked with 60 μL/well of 2.5% milk in PBST for one hour at 25° C. with shaking. After one hour, the blocking buffer was dumped off of the plate and 20 μL/well of PBST and 10 μL/well of phage supernatant were added. Plates were incubated at 25° C. for one hour with shaking. The plate was then washed six times with PBST by manually filling the wells and dumping off the wash buffer. A 1:5,000 dilution of an anti-M13 horseradish peroxidase (HRP)-conjugated secondary antibody (GE Healthcare) in PBST was used for detection of phage binding. 30 μL/well of the secondary dilution was added and the plate was incubated at 25° C. for 30 minutes with shaking. The plate was then washed six times with PBST and twice with PBS, both manually. Bound secondary antibody was detected using a TMB substrate (KPL) followed by quenching with an equal volume of 1 M phosphoric acid. The absorbance was read at 450 nm.

[6] = target: T3, monoubiquitin (Boston Biochem) (human, UniProt P0CG48 1-76); experiment: as above
T3 construct: Bought product
Experimental: as §2

[7] = target: T4, K48-linked polyubiquitin 2-7 (Boston Biochem) (human, UniProt P0CG48 1-76, isopeptide bonds between the C-terminus of one ubiquitin and Lys48 of the next); experiment: as above
T4 construct: also called K48-linked chains
Experimental: as §2

[8] = target: T5, K11-linked diubiquitin (Genentech) (human, UniProt P0CG48 1-76, isopeptide bond between the C-terminus of one ubiquitin and Lys11 of the other); experiment: as above
T5 construct: also called K11 diUb
Experimental: as §2

[9] = target: T1, linear diubiquitin (Boston Biochem); experiment: western blot, 1 ug/mL IgG, LI-COR Odyssey quantification; Ub2 bands seen at 37 (faint), 111, 333 and 1000 ng
[10] = target: T1, linear diubiquitin (Boston Biochem); experiment: western blot, 1 ug/mL IgG, LI-COR Odyssey quantification; Ub2 bands seen at 111 (faint), 333 and 1000 ng
[11] = target: T1, linear diubiquitin (Boston Biochem); experiment: phage IC50 competition ELISA with soluble linear diubiquitin; remark: listed apart in the source
[12] = target: T6, K48-linked diubiquitin (Boston Biochem) (human, UniProt P0CG48 1-76, isopeptide bond between the C-terminus of one ubiquitin and Lys48 of the other); experiment: phage specificity ELISA, 1 ug/mL coated antigen, anti-M13-HRP
T6 construct: Bought product; also called K48 diUb

[13] = target: T3, monoubiquitin (Boston Biochem); experiment: as above
[14] = target: T5, K11-linked diubiquitin (Genentech); experiment: as above
[15] = target: T6, K48-linked diubiquitin (Boston Biochem); experiment: as above; remark: listed apart in the source
[16] = target: T3, monoubiquitin (Boston Biochem); experiment: as above; remark: listed apart in the source
[17] = target: T5, K11-linked diubiquitin (Genentech); experiment: as above; remark: listed apart in the source

B1: 1D8.3C2, Fab displayed on phage (Fab, V domains shown)
VH: EVQLVESGGGLVQPGGSLRLSCAASGFTFTDYDIHWVRQAPGKGLEWVAWISPYSGYTDYADSVKGRFTISADTSKNTAYLQMNSLRAEDTAVYYCAREAGSRLLSVMDYWGQGTLVTVSS
VL: DIQMTQSPSSLSASVGDRVTITCRASQGVDNSVAWYQQKPGKAPKLLIYSASFLYSGVPSRFSGSGSGTDFTLTISSLQPEDFATYYCQQSYTTPPTFGQGTKVEIK
notes: Fab on M13 phage
[1]
  binding result: binds

B2: 1D8, Fab displayed on phage (Fab, V domains shown)
VH: B1 VH with W50G, S55G
VL: B1 VL with G28D, D30S, N31T, S32A
notes: Fab on M13 phage (heavy chain fused to gpIII, gD tag on light chain); Fab-zip (bivalent) in the first spot ELISA, monovalent afterwards; also called parental wild-type 1D8
[2]
  IC50: ~5000 nM

B3: 1E3, Fab displayed on phage (Fab, V domains shown)
VH: EVQLVESGGGLVQPGGSLRLSCAASGFTFSNTYISWVRQAPGKGLEWVASITPSSGSTDYADSVKGRFTISADTSKNTAYLQMNSLRAEDTAVYYCARTWLLRWVMDYWGQGTLVTVSS
VL: B1 VL with G28D, D30S, N31T, S32A
notes: Fab on M13 phage (heavy chain fused to gpIII, gD tag on light chain); Fab-zip (bivalent) in the first spot ELISA, monovalent afterwards; also called WT; parental 1E3
[3]
  IC50: 80 nM
[4]
  IC50: 29 nM and 24 nM and 25 nM

B4: 1A10, Fab displayed on phage (Fab, V domains shown)
VH: EVQLVESGGGLVQPGGSLRLSCAASGFNIYYSSIHWVRQAPGKGLEWVASIYPYYGYTSYADSVKGRFTISADTSKNTAYLQMNSLRAEDTAVYYCARGYSWYYGSPAFDYWGQGTLVTVSS
VL: B1 VL with G28S, D30S, N31S, S32A, F53S, G66R, S91H
notes: Fab on M13 phage
[5]
  binding result: no binding
[6]
  binding result: no binding
[7]
  binding result: no binding
[8]
  binding result: no binding

B5: 1F11/3F5/Y102L IgG (antibody, V domains shown)
VH: B3 VH with S57Q, Y108L
VL: B1 VL with G28D, D30S, N31T, S32A, S52K
notes: also called triple mutant; hybrid anti-linear polyubiquitin antibody
[9]
  signal of the Ub2 band at 1000 ng linear diUb (number under the arrow): 15.5

B6: 1F11/Y102L T110A (antibody, V domains shown)
VH: B3 VH with Y108L, T116A
VL: B1 VL with G28D, D30S, N31T, S32A, S52K
notes: also called 1F11/Y102L T110A IgG
[10]
  signal of the Ub2 band at 1000 ng linear diUb (number under the arrow): 8.4

B7: 1D8.4F5, Fab displayed on phage (Fab, V domains shown)
VH: B1 VH with Y32D, W50E, S55G
VL: B1 VL with G28D, D30S, N31T, S32A, Y92F
notes: Fab on M13 phage
[11]
  IC50: ~2000 nM

B8: 1F11/3F5/Y102L T110A (antibody, V domains shown)
VH: B3 VH with S57Q, Y108L, T116A
VL: B1 VL with G28D, D30S, N31T, S32A, S52K
notes: also called 1F11/3F5/Y102L T110A IgG
[9]
  signal of the Ub2 band at 1000 ng linear diUb (number under the arrow): 5.5

B9: 2H5/3F5 double mutant, Fab displayed on phage (Fab, name in Kabat numbering, V domains shown)
VH: B3 VH with S57Q
VL: B1 VL with G28D, D30S, N31T, S32A, T94N
[12]
  binding result: no binding (tested: phage OD268 1)
[13]
  binding result: no binding (tested: phage OD268 1)
[14]
  binding result: no binding (tested: phage OD268 1)
[4]
  IC50: 8 nM

B10: 2C11/3F5 double mutant, Fab displayed on phage (Fab, name in Kabat numbering, V domains shown)
VH: B3 VH with S57Q
VL: B1 VL with G28D, D30S, N31T, S32A, T94Q
[12]
  binding result: no binding (tested: phage OD268 1)
[13]
  binding result: no binding (tested: phage OD268 1)
[14]
  binding result: no binding (tested: phage OD268 1)
[4]
  IC50: 10 nM

B11: 3F5/Y102L IgG (antibody, V domains shown)
VH: B3 VH with S57Q, Y108L
VL: B1 VL with G28D, D30S, N31T, S32A
notes: Human kappa IgG1
[9]
  signal of the Ub2 band at 1000 ng linear diUb (number under the arrow): 18

B12: 1F11/3F5 double mutant, Fab displayed on phage (Fab, V domains shown)
VH: B3 VH with S57Q
VL: B1 VL with G28D, D30S, N31T, S32A, S52K
notes: S52K (L2) and S56Q (H2)
[4]
  IC50: 5 nM
[15]
  binding result: no binding (tested: phage OD268 1)
[16]
  binding result: no binding (tested: phage OD268 1)
[17]
  binding result: no binding (tested: phage OD268 1)
